# From IntAct's records for PubMed 20596027
# B1: Cyclin-F (Homo sapiens), P41002 (parent)
# chain: MGSGGVVHCRCAKCFCYPTKRRIRRRPRNLTILSLPEDVLFHILKWLSVEDILAVRAVHSQLKDLVDNHASVWACASFQELWPSPGNLKLFERAAEKGNFEAAVKLGIAYLYNEGLSVSDEARAEVNGLKASRFFSLAERLNVGAAPFIWLFIRPPWSVSGSCCKAVVHESLRAECQLQRTHKASILHCLGRVLSLFEDEEKQQQAHDLFEEAAHQGCLTSSYLLWESDRRTDVSDPGRCLHSFRKLRDYAAKGCWEAQLSLAKACANANQLGLEVRASSEIVCQLFQASQAVSKQQVFSVQKGLNDTMRYILIDWLVEVATMKDFTSLCLHLTVECVDRYLRRRLVPRYRLQLLGIACMVICTRFISKEILTIREAVWLTDNTYKYEDLVRMMGEIVSALEGKIRVPTVVDYKEVLLTLVPVELRTQHLCSFLCELSLLHTSLSAYAPARLAAAALLLARLTHGQTQPWTTQLWDLTGFSYEDLIPCVLSLHKKCFHDDAPKDYRQVSLTAVKQRFEDKRYGEISQEEVLSYSQLCAALGVTQDSPDPPTFLSTGEIHAFLSSPSGRRTKRKRENSLQEDRGSFVTTPTAELSSQEETLLGSFLDWSLDCCSGYEGDQESEGEKEGDVTAPSGILDVTVVYLNPEQHCCQESSDEEACPEDKGPQDPQALALDTQIPATPGPKPLVRTSREPGKDVTTSGYSSVSTASPTSSVDGGLGALPQPTSVLSLDSDSHTQPCHHQARKSCLQCRPPSPPESSVPQQQVKRINLCIHSEEEDMNLGLVRL
# B2: Centriolar coiled-coil protein of 110 kDa (Homo sapiens), O43303-2 (parent)
# chain: MEEYEKFCEKSLARIQEASLSTESFLPAQSESISLIRFHGVAILSPLLNIEKRKEMQQEKQKALDVEARKQVNRKKALLTRVQEILDNVQVRKAPNASDFDQWEMETVYSNSEVRNLNVPATFPNSFPSHTEHSTAAKLDKIAGILPLDNEDQCKTDGIDLARDSEGFNSPKQCDSSNISHVENEAFPKTSSATPQETLISDGPFSVNEQQDLPLLAEVIPDPYVMSLQNLMKKSKEYIEREQSRRSLRGSINRIVNESHLDKEHDAVEVADCVKEKGQLTGKHCVSVIPDKPSLNKSNVLLQGASTQASSMSMPVLASFSKVDIPIRTGHPTVLESNSDFKVIPTFVTENNVIKSLTGSYAKLPSPEPSMSPKMHRRRSRTSSACHILINNPINACELSPKGKEQAMDLIIQDTDENTNVPEIMPKLPTDLAGVCSSKVYVGKNTSEVKEDVVLGKSNQVCQSSGNHLENKVTHGLVTVEGQLTSDERGAHIMNSTCAAMPKLHEPYASSQCIASPNFGTVSGLKPASMLEKNCSLQTELNKSYDVKNPSPLLMQNQNTRQQMDTPMVSCGNEQFLDNSFEKVKRRLDLDIDGLQKENCPYVITSGITEQERQHLPEKRYPKGSGFVNKNKMLGTSSKESEELLKSKMLAFEEMRKRLEEQHAQQLSLLIAEQEREQERLQKEIEEQEKMLKEKKAMTAEASELDINNAVELEWRKISDSSLLETMLSQADSLHTSNSNSSGFTNSAMQYSFVSANEAPFYLWGSSTSGLTKLSVTRPFGRAKTRWSQVFSLEIQAKFNKITAVAKGFLTRRLMQTDKLKQLRQTVKDTMEFIRSFQSEAPLKRGIVSAQDASLQERVLAQLRAALYGIHDIFFVMDAAERMSILHHDREVRKEKMLRQMDKMKSPRVALSAATQKSLDRKKYMKAAEMGMPNKKFLVKQNPSETRVLQPNQGQNAPVHRLLSRQGSICRKNPKKAAKCCDNLRRQHSLG
# partner: B1 chain
# Variants of: B1
# Settings: with cul1_human CUL1, Q13616
# Sequence of cul1_human CUL1, Q13616 (Q13616 whole entry): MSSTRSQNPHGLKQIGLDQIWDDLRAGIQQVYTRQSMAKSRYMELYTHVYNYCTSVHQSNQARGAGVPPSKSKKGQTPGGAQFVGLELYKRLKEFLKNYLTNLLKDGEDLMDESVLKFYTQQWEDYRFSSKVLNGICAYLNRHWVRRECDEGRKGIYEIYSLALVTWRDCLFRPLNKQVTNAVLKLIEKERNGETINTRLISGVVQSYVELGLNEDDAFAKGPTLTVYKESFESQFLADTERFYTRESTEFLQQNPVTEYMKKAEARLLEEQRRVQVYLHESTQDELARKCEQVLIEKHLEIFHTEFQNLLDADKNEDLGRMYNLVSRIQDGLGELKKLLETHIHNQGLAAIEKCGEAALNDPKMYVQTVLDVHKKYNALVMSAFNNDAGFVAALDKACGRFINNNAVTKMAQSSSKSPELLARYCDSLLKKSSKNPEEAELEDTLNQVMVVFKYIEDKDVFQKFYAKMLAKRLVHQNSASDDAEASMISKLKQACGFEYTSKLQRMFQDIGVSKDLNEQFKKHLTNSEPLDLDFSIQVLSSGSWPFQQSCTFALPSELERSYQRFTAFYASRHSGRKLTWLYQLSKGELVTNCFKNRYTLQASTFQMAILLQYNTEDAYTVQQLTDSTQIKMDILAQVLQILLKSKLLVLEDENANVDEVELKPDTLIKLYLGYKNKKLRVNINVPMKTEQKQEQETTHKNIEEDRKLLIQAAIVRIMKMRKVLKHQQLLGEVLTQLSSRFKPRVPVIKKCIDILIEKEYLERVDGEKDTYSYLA
row,effect of a mutation on the interaction,Variant
1,disrupting interaction,L35A;P36A

# Variants of: B1
# Settings: with cp110_human CCP110, O43303
row,effect of a mutation on the interaction,Variant
1,disrupting interaction,M309A;L313A

# Variants of: B2
# Settings: with ccnf_human CCNF
row,effect of a mutation on the interaction,Variant
1,disrupting interaction,L588A;L590A
